Article PMC10257199
Read-outs that look alike come from different tables or passages of the source.

Assays:
[1] = target: MBP-Vpu fusion protein (His8-MBP-linker-full-length HIV-1 Vpu, Q36C) (HIV-1); experiment: SEC
[2] = target: MBP-Vpu fusion protein (His8-MBP-linker-full-length HIV-1 Vpu, Q36C) (HIV-1); experiment: SEC; remark: listed apart in the source
[3] = target: MBP-Vpu fusion protein spin-labeled at residue Q36C (HIV-1); experiment: DEER
[4] = target: MBP-Vpu fusion protein spin-labeled at residue Q36C (HIV-1); experiment: DEER; remark: listed apart in the source
[5] = target: MBP-Vpu fusion protein spin-labeled at residue Q36C (HIV-1); experiment: DEER; remark: listed apart in the source

Substance: MBP-Vpu fusion protein (His8-MBP-linker-full-length HIV-1 Vpu, Q36C)
- stoichiometry N [1]: 5
- stoichiometry N [2]: 5

Substance: MBP-Vpu fusion protein spin-labeled at residue Q36C
- DEER modulation depth [3]: 0.56
- stoichiometry N [4]: 5
- DEER modulation depth [5]: 0.24
- stoichiometry N [5]: > 3
